The values that follow come from patent US20220040304A1, “A COMPOSITION FOR CANCER CELL DEATH AND ITS USE” (Industry-University Cooperation Foundation Hanyang …, priority 2018, published 2022).

What all share (type): cell-based, human
The test system of assay [1] is MCF-7 cells. Kind of assay: Cell death according to incubation time after various Co-h concentrations (SYTOX Green/DAPI). As to conditions: MCF-7, protein 10 μM. As to the method:
MCF-7 cells were seeded at 5×10^5 cells/mL in a 96-well plate (SPL Cell Culture Plate, 96 well (SPL, Cat #30096)), and cultured at 37° C. for 24 hours (overnight). After the culture for 24 hours, the cells were washed with FBS & Phenol red-free media (RPMI, Well Gene., Korea, Cat #LM011-02), and 100 μL of an FBS-free medium containing the purified protein (final concentration: 10 μM) was added, followed by reaction at 37° C. for 24 hours.
After the reaction for 24 hours, the cells were washed with FBS & Phenol red-free media (RPMI), and then 100 μL of FBS & Phenol red-free media (RPMI) was added again. The reaction was performed by each concentration of the Co-h substrate solution, and then the cells were incubated at 37° C.
After incubation, 50 μL of SYTOX Green (final concentration: 261 nM) staining DNA of dead cells and DAPI 10 μL of DAPI staining DNA of live cells were added, followed by reaction for 5 minutes. Cell death was confirmed by detecting KillerRed, SYTOX Green and DAPI fluorescence according to the light irradiation time for cells using a confocal microscope.

Assay [2] has as its system MCF-7 cells. Briefly: Cell death according to presence of serum and protein concentration (Co-h). The settings on record: MCF-7, serum-free media or serum-containing media, 12 hours, Co-h 150 μM. As for the experimental part:
MCF-7 cells were seeded at 5×10^5 cells/mL in a 96-well plate (SPL Cell Culture Plate, 96 well (SPL, Cat #30096)), and cultured at 37° C. for 24 hours (overnight). After the culture for 24 hours, the cells were washed with FBS & Phenol red-free media (RPMI), and 100 μL of FBS & Phenol red-free media (RPMI) or FBS media (RPMI) containing a predetermined concentration of purified protein, followed by reaction at 37° C. for 12 hours.
After the reaction for […], the cells were washed with FBS & Phenol red-free media (RPMI), 100 μL of FBS & Phenol red-free media (RPMI) containing a Co-h substrate solution (final concentration: 150 μM) and SYTOX Green (final concentration: 261 nM) staining DNA of dead cells was added, followed by reaction at 37° C. for 30 minutes.
After the reaction, 10 μL of DAPI staining DNA of live cells was added, followed by reaction for 5 minutes. Cell death was confirmed by observing KillerRed, SYTOX Green and DAPI fluorescence using a confocal microscope.

Assay [3] has as its system MCF-7 cells. Kind of assay: Flow cytometric analysis of KR, SYTOX Green and DAPI. As for the experimental part:
MCF-7 cells were seeded at 5×10^5 cells/mL in a 96-well plate (SPL Cell Culture Plate, 96 well (SPL, Cat #30096)), and cultured at 37° C. for 24 hours (overnight). After the culture, the cells were washed with FBS & Phenol red-free media (RPMI), and 100 μL of FBS & Phenol red-free media (RPMI) containing a purified protein (final concentration: 10 μM), followed by reaction at 37° C. for 24 hours (overnight).
After washing with KillerRed: FBS & Phenol red-free media (RPMI), the cells were detached by treating 100 μL of Trypsin EDTA (Gibco™), and then centrifuged at 1,000 rpm for 3 minutes. The cells were filtered through a cell strainer (SPL, cat #93070) and resuspended in 400 μL of 1×DPBS containing 5% FBS.
The cells were washed with SYTOX Green: FBS & Phenol red-free media (RPMI), and 100 μL (final concentration: 150 μM) of FBS & Phenol red-free media (RPMI) containing a Co-h substrate solution was added, followed by incubation for 24 hours at 37° C. 50 μL of SYTOX Green (final concentration: 261 nM) staining DNA of dead cells was added without washing the cells, followed by reaction at 37° C. for 30 minutes. Without washing, the cells were detached by treatment with 100 μL of trypsin EDTA (Gibco™), and centrifuged at 1,000 rpm for 3 minutes. The cells were filtered through a cell strainer (SPL, cat #93070) and resuspended in 400 μL of 1×DPBS containing 5% FBS.
The cells were washed with DAPI: FBS & Phenol red-free media (RPMI), and 100 μL (final concentration: 150 μM) of FBS & Phenol red-free media (RPMI) containing a Co-h substrate solution was added, followed by incubation for 24 hours at 37° C. The cells were washed with FBS & Phenol red-free media (RPMI), and then 100 μL of media (RPMI) was added thereto. 10 μL of DAPI staining DNA of live cells was added, followed by reaction at 37° C. for 30 minutes. The cells were detached by treatment with 100 μL of trypsin EDTA (Gibco™) without washing, followed by centrifugation at 1,000 rpm for 3 minutes. The cells were filtered through a cell strainer (SPL, cat #93070) and resuspended in 400 μL of 1×DPBS containing 5% FBS.

The subject of assay [4] is MCF-7. Briefly: Cell death after light irradiation by cell type (SYTOX Green/DAPI). As to conditions: MCF-7, protein 10 μM, light 10 mW/cm^2 for 10 minutes. As to the method: Data on each breast cancer cell line is as follows (Table 4): MCF-7: (Origin: breast, mammary gland, Species: human—person, Growth pattern: monolayer, Media: RPMI1640 with L-glutamine (300 mg/L), 25 mM HEPES and 25 mM NaHCO3, 90%; heat inactivated fetal bovine serum (FBS), 10%), purchased from Korean Cell Line Bank (KCLB).
(§1) The cells were seeded at 5×10^5 cells/mL in 96-well plates (SPL Cell Culture Plate, 96 well (SPL, Cat #30096)), and cultured at 37° C. for 24 hours (overnight). After the culture for 24 hours, the cells were washed with FBS & phenol red-free media, and 100 μL of FBS & phenol red-free media containing a purified protein (final concentration: 10 μM) was added, followed by reaction at 37° C. for 24 hours. After the reaction for 24 hours, the cells were washed with FBS & phenol red-free media, and 100 μL of FBS & phenol red-free media was added.
(§2) After irradiation with light at 10 mW/cm^2 for 10 minutes, 50 μL (final concentration: 261 nM) of SYTOX Green staining DNA of dead cells was added, followed by reaction at 37° C. for 30 minutes. 10 μL of DAPI staining DNA of live cells was added, followed by reaction for 5 minutes. Cell death was confirmed by observing KillerRed, SYTOX Green and DAPI fluorescence using a confocal microscope.

Assay [5] has as its system MDA-MB-231. The description is as above. The settings on record: MDA-MB-231, protein 10 μM, light 10 mW/cm^2 for 10 minutes. As to the method:
MDA-MB-231: (Origin: breast, mammary gland, Species: human—person, Growth pattern: monolayer, Media: DMEM with glucose (4.5 g/L), L-glutamine and sodium pyruvate, 90%; heat inactivated fetal bovine serum (FBS), 10%), purchased from Korean Cell Line Bank (KCLB).
as §1, §2

[6] abbreviates: MCF-7, protein 10 μM, Co-h 150 μM 24 hours.

B1: RLuc8.6-KR-LP: fusion protein of RLuc8.6, KillerRed and lead peptide WLEAAYQRFL, 71 kDa (protein)
chain: MRGSHHHHHHGMASMTGGQQMGRDLYDDDDKDPMASKVYDPEQRKRMITGPQWWARCKQMNVLDSFINYYDSEKHAENAVIFLHGNATSSYLWRHVVPHIEPVARCIIPDLIGMGKSGKSGNGSYRLLDHYKYLTAWFELLNLPKKIIFVGHDWGSALAFHYAYEHQDRIKAIVHMESVVDVIESWMGWPDIEEELALIKSEEGEKMVLENNFFVETLLPSKIMRKLEPEEFAAYLEPFKEKGEVRRPTLSWPREIPLVKGGKPDVVQIVRNYNAYLRASDDLPKLFIESDPGFFYNAIVEGAKKFPNTEFVKVKGLHFLQEDAPDEMGKYIKSFVERVLKNEQEFGGGMLCCMRRTKQVEKNDEDQKISEGGPALFQSDMTFKIFIDGEVNGQKFTIVADGSSKFPHGDFNVHAVCETGKLPMSWKPICHLIQYGEPFFARYPDGISHFAQECFPEGLSIDRTVRFENDGTMTSHHTYELDDTCVVSRITVNCDGFQPDGPIMRDQLVDILPNETHMFPHGPNAVRQLAFIGFTTADGGLMMGHFDSKMTFNGSRAIEIPGPHFVTIITKQMRDTSDKRDHVCQREVAYAHSVPRITSAIGSDEDGGGWLEAAYQRFL
modifications: pRSET-RLuc8.6-KillerRed-Lead peptide
Turning to B1, the “cell incubation time after which the number of cells stained with SYTOX Green increased” value in assay [1] (25 μM or 50 μM substrate solution for 5 minutes) was at least 30 min. Moreover, the “cell incubation time at which cells stained with SYTOX Green were observed” value in assay [1] (150 μM substrate solution for 5 minutes) was “approximately 10 minutes”. Besides, in assay [2], the “number of cells stained with SYTOX Green according to protein concentration” value is listed as “the higher the number of cells stained with SYTOX Green”. For the same molecule, in assay [3] (MCF-7, protein 10 μM 24 hours), the “number of cells exhibiting fluorescence of KillerRed (FACS)” value is on record as “increased”. Also, in assay [3] (setting [6]), the “number of cells exhibiting SYTOX Green (FACS)” value is recorded as “increased” and the “number of cells stained with DAPI (FACS)” value is given as “decreased”. Besides, the “cell death after light irradiation” value in assay [4] is listed as “killing the three types of cancer cell lines”. The “cell death after light irradiation” value in assay [5] is “killing the three types of cancer cell lines”.

B2: RLuc8.6-KR: fusion protein of RLuc8.6 and KillerRed without lead peptide, 69 kDa (protein)
chain: MRGSHHHHHHGMASMTGGQQMGRDLYDDDDKDPMASKVYDPEQRKRMITGPQWWARCKQMNVLDSFINYYDSEKHAENAVIFLHGNATSSYLWRHVVPHIEPVARCIIPDLIGMGKSGKSGNGSYRLLDHYKYLTAWFELLNLPKKIIFVGHDWGSALAFHYAYEHQDRIKAIVHMESVVDVIESWMGWPDIEEELALIKSEEGEKMVLENNFFVETLLPSKIMRKLEPEEFAAYLEPFKEKGEVRRPTLSWPREIPLVKGGKPDVVQIVRNYNAYLRASDDLPKLFIESDPGFFYNAIVEGAKKFPNTEFVKVKGLHFLQEDAPDEMGKYIKSFVERVLKNEQEFGGGMLCCMRRTKQVEKNDEDQKISEGGPALFQSDMTFKIFIDGEVNGQKFTIVADGSSKFPHGDFNVHAVCETGKLPMSWKPICHLIQYGEPFFARYPDGISHFAQECFPEGLSIDRTVRFENDGTMTSHHTYELDDTCVVSRITVNCDGFQPDGPIMRDQLVDILPNETHMFPHGPNAVRQLAFIGFTTADGGLMMGHFDSKMTFNGSRAIEIPGPHFVTIITKQMRDTSDKRDHVCQREVAYAHSVPRITSAIGSDED
modifications: pRSET-RLuc8.6-KillerRed
Turning to B2, the “number of cells stained with DAPI (FACS)” value in assay [3] (setting [6]) is recorded as “increases without a cytotoxic effect”.
